Columns and labels:
blue laccase = molecular target: T1, blue laccase (Sclerotinia sclerotiorum, UniProt A7EM18); assay: UV-vis after desalting; assay type: binding; details: covalent, adduct of the radical product formed on turnover, site not identified; 25 mM MES pH 6.3
T1 construct: gene SS1G_06365; native, secreted, purified from culture medium; ~66 kDa glycoprotein; blue form (phenolics removed by preparative native PAGE or low-coloured medium)
T1 sequence (A7EM18 28-577): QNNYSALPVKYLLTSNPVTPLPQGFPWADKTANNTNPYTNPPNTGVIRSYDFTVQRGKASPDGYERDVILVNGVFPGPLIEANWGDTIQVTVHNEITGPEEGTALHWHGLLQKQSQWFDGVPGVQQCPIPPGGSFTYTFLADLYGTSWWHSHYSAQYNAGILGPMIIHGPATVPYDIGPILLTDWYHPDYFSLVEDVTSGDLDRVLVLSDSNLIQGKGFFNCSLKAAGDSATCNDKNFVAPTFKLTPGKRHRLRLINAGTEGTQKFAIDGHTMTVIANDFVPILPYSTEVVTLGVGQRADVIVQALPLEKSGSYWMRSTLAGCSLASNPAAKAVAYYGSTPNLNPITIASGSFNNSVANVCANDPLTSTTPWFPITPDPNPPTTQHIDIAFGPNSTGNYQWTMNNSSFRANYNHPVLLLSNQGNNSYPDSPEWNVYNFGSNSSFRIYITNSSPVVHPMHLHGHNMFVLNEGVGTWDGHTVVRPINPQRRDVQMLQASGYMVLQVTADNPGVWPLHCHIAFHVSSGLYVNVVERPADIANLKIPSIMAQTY

purified protein [1] = substrate: CCn1c(=NN=c2sc3cc(S(=O)(=O)O)ccc3n2CC)sc2cc(S(=O)(=O)O)ccc21; assay: purified protein; assay type: biochemical, Sclerotinia sclerotiorum; details: 50 mM acetate pH 4, relative SD 5–20%
purified protein [2] = substrate: Cc1cc(-c2cc(C)c(N)c(C)c2)cc(C)c1N; assay: purified protein; assay type: biochemical, Sclerotinia sclerotiorum; details: 50 mM acetate pH 4, relative SD 5–20%

In the case of `COc1ccccc1O` [guaiacol], the UV-vis after desalting (blue laccase) is reported as “purple with ABTS, red with guaiacol, orange with TMB”.

With `Cc1cc(-c2cc(C)c(N)c(C)c2)cc(C)c1N` [TMB, 3,3’,5,5’-tetramethylbenzidine] the UV-vis after desalting (blue laccase) was “purple with ABTS, red with guaiacol, orange with TMB”.

B1: yellow laccase (Sclerotinia sclerotiorum 1980 UF-70) (protein)
chain: T1 sequence (A7EM18 28-577)
notes: native, secreted, purified from culture medium; ~66 kDa; as-isolated yellow form, natural covalent phenolic adduct of the same protein as P1
B1 gave a Km (purified protein [1]) of 14.1 µM, a kcat (purified protein [1]) of 5.7 s⁻¹ and a Km (purified protein [2]) of 2.70 µM. The kcat (purified protein [2]) was 3.1 s⁻¹.
